As a reminder, the Kd is a measure of binding affinity in units of concentration.

For assay [1], the target named is T1, GST-USP7-murine TRAF WT (murine, UniProt Q6A4J8 1-208).
T1 construct: also called GST-mUSP7-TRAF WT; murine USP7-TRAF
As to the kind of experiment: pull-down. To be noted: both partners purified.

The target of assay [2] is T2, Recombinant USP7-TRAF protein (human, UniProt Q93009 1-208).
T2 construct: also called USP7-TRAF domain
The assay is described as follows: SPR; Biacore T200; USP7-TRAF immobilised on a CM5 chip by amine coupling to about 8000 RU; gradient concentrations of peptides injected at 30 μL/min; running buffer 0.05% (v/v) Tween 20 in PBS. To be noted: both partners purified. (In general: In SPR one partner is held on a chip, and binding of the other changes the refractive index at the surface.)

The target of assay [3] is T2, Recombinant USP7-TRAF protein. The assay is described as follows: SPR. The conditions noted are these: both partners purified.
Assay [4] addresses USP7 (endogenous in SLK.iBAC-GFP cells) (human (endogenous in SLK.iBAC-GFP), UniProt Q93009 1-1102). The assay is described as follows: cell-based or functional assay.

T2 sequence (Q93009 1-208): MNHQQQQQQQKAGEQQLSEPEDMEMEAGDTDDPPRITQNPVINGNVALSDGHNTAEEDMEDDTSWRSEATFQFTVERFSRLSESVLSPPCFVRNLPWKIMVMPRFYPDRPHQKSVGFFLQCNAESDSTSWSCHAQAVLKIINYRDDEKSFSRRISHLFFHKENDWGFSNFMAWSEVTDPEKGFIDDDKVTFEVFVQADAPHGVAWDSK
T1 sequence (Q6A4J8 1-208): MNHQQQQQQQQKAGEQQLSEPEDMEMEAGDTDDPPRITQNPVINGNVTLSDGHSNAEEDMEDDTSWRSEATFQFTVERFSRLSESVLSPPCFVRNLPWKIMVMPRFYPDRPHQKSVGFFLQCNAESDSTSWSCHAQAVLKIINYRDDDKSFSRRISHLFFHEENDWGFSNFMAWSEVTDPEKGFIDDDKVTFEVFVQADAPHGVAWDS
Sequence of USP7 (endogenous in SLK.iBAC-GFP cells) (Q93009 whole entry): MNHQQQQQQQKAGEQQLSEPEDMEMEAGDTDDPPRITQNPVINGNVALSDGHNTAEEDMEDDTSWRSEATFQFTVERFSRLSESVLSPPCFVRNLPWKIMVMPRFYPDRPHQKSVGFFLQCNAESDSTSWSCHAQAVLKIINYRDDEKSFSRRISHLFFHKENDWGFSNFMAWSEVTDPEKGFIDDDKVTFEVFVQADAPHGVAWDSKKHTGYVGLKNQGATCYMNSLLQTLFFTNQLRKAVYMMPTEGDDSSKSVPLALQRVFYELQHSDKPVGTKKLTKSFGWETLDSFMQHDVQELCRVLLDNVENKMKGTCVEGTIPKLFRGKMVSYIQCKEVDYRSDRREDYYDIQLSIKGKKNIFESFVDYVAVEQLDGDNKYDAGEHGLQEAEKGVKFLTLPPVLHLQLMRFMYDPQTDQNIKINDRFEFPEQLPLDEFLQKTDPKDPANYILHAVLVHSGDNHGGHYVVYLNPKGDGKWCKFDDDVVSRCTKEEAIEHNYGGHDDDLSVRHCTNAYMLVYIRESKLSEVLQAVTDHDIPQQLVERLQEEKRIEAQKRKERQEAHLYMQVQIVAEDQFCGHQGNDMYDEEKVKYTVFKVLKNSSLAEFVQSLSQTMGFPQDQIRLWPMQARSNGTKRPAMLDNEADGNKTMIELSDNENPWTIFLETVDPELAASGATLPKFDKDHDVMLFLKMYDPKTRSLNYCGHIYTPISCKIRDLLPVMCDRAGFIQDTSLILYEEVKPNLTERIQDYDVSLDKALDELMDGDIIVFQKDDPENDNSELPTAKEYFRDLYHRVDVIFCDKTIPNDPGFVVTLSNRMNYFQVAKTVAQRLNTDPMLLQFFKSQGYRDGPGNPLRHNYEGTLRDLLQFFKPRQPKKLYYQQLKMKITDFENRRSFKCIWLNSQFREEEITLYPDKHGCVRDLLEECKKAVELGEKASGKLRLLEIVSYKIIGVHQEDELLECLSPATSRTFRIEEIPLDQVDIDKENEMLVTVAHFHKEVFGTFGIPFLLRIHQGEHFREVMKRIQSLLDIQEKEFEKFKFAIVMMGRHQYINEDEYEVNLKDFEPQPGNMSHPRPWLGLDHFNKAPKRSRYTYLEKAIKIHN

With Ac-YGRKKRRQRRRGGVSQSPSQNSN-NH2 (also called murine-derived p8) [p8-m], in assay [1], the binding result was “binds”.
For the molecule Ac-EVADEDNSEI-NH2 (also called peptide p2) [p2], in assay [2], the Kd worked out at 9.02 µM.

B1: p8 (peptide)
peptide: Ac-VNQSASQSSN-NH2
notes: also called peptide p8; human-derived p8
Regarding B1, in assay [3], the Kd is 3.16 µM.
As for Ac-YGRKKRRQRRRGGVNQSASQSSN-NH2 [p8 fused to an N-terminal Tat(47-57) peptide via a GG linker], the “IC50 of inhibition of KSHV lytic reactivation in SLK.iBAC-GFP cells (blocks OTUD4-USP7)” value in assay [4] was found to be 52.6 µM.
